These results are taken from US8524947B2, “Acylsulfonamides and processes for producing the same” (University of South Florida, priority 2008, dated 2013).

Assay [1] addresses T1, Bcl-XL (Homo sapiens, UniProt Q07817). Put plainly: Suppression of Bcl-XL-templated incubations of (SZ4) and (TA2) by BH3 peptides (LC/MS-SIM). As to conditions: for amount of acylsulfonamide (SZ4TA2) in Bcl-XL incubations containing the peptide: compared to the Bcl-XL incubations containing wild type Bak BH3 and Bim peptides. The class given is biochemical. The protocol: In a 96-well plate, one thio acid building block (1 μL of a 2 mM solution in methanol) and one sulfonyl azide building block (1 μL of a 2 mM solution in methanol) were added to a solution of Bcl-XL (98 μL of a 2 μM Bcl-XL solution in buffer (58 mM Na2HPO4, 17 mM NaH2PO4, 68 mM NaCl, 1 mM NaN3, pH=7.40)). The 96-well plate was sealed and incubated at 38.5° C. for six hours. The incubation samples were then subjected to liquid chromatography combined with mass spectrometry analysis in the selected ion mode (LC-MS-SIM, Zorbax SB-C18 preceded by a Phenomenex C18 guard column, electrospray ionization and mass spectroscopic detection in the positive selected ion mode, tuned to the expected molecular mass of the product). The TGS hit compound was identified by the mass and retention time. As a control, identical building block combinations were incubated in buffer without Bcl-XL and subjected to LC/MS-SIM analysis. Comparison of the LC-MS-SIM chromatograms of these control incubations with the chromatograms of the Bcl-XL containing incubations allows to determine whether the protein is templating the corresponding amidation reactions or not. For the Bcl-XL containing incubation sample showing acylsulfonamide formation, a second control has been undertaken. Synthetically prepared acylsulfonamide was subjected to LC/MS-SIM analysis and the retention time was compared with the retention time identified in the Bcl-XL containing incubation.
Additional control experiments have been performed to test whether the Bcl-XL-templated reaction occurs at the BH3 binding site on Bcl-XL. Reactive building blocks (SZ4) and (TA2) were incubated with Bcl-XL and pro-apoptotic Bak BH3 peptide. Bak is one of the natural Bcl-XL ligands and theoretically competes with the reactive building blocks for binding on Bcl-XL during the incubations. The influence of Bak BH3 peptide on the Bcl-XL-templated reaction was studied at different ratios of Bak BH3 peptide and Bcl-XL (FIG. 10).
Additional control experiments have been performed with Bim, mutant Bim, and mutant Bak. […]

Assay [2] deals with T1, Bcl-XL. As to conditions: compared to wildtype Bak BH3 and Bim peptides; cited from earlier work.

T1 sequence (Q07817 whole entry): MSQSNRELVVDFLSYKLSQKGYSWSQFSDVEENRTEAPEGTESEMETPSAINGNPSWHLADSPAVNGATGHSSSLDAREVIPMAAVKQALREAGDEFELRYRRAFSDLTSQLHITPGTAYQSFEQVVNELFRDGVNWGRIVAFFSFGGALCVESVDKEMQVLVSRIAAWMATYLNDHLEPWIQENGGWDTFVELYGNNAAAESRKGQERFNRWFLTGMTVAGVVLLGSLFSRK

Consider “Bak BH3 peptide: pro-apoptotic Bak BH3 peptide, a natural Bcl-XL ligand; sequence CMGQVGRQLAIIGDDINRRYDS”, for which, in assay [1] (20 μM Bak BH3 peptide, (SZ4) and (TA2) with Bcl-XL, compared to the Bcl-XL incubation without Bak BH3), the “Bcl-XL-templated reaction (formation of SZ4TA2)” value is “significantly suppressed”.
As to “mutant Bak: mutant Bak BH3 peptide; sequence CMGQVGRQAAIIGADINRRYDS”, the “affinity towards Bcl-XL” value in assay [2] is recorded as “lower affinity”. Also, the “amount of acylsulfonamide (SZ4TA2) in Bcl-XL incubations containing the peptide” value in assay [1] is reported as “increased amount”.
As for “mutant Bim: mutant Bim BH3 peptide; sequence CEIWIAQEARRIGAEFNAYYAR”, the “affinity towards Bcl-XL” value in assay [2] is given as “lower affinity”. Also, in assay [1], the “amount of acylsulfonamide (SZ4TA2) in Bcl-XL incubations containing the peptide” value is listed as “increased amount”.
